The values below come from PMC3668366.

Data set [1] deals with CEBPB B-ZIP domain;ATF4 B-ZIP domain (mouse;mouse, UniProt P28033;Q06507 222-285;276-339, |). Kind of data set: EMSA. (In general: Mobility shift assays separate free from complexed probe on a gel.)
Data set [2] concerns the target CEBPB B-ZIP domain (mouse, UniProt P28033 222-285). Kind of data set: EMSA.

CEBPB B-ZIP domain, sequence (P28033 222-285): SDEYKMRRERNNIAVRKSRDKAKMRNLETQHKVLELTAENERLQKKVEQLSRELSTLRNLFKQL
CEBPB B-ZIP domain;ATF4 B-ZIP domain, sequence (P28033 222-285, chain 1 of 2): as the sequence (P28033 222-285) above
CEBPB B-ZIP domain;ATF4 B-ZIP domain, sequence (Q06507 276-339, chain 2 of 2): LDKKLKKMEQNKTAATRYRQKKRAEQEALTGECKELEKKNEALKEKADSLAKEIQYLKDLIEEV

B1: Hetero (CGAT|GCAA) unmethylated (dsDNA)
DNA 1: GTCAGTCAGACGATGCAATATAGGTCAG
DNA 2: CTGACCTATATTGCATCGTCTGACTGAC
With B1, the binding signal in data set [1] was 10 fold weaker than methylated N2.

B2: 10-mer-A (M) (dsDNA)
DNA 1: GTCAGTCAGATTGCGCAATATAGGTCAG
DNA 2: CTGACCTATATTGCGCAATCTGACTGAC
modifications: 5mC at position 14 of each strand
For the molecule B2, the “apparent K (half saturation)” value in data set [2] is approximately 5 nM.
